Test results as given in the DeepSol protein solubility set.

Assay: soluble on expression in E. coli; label from the status in PepcDB or PDB records

Sequence	soluble on expression in E. coli
MRIVTAAVMASTLAVSSLSHAAEVGSGDNWHPGEELTQRSTQSHMFDGISLTEHQRQQMRDLMQQARHEQPPVNVSELETMHRLVTAENFDENAVRAQAEKMANEQIARQVEMAKVRNQMYRLLTPEQQAVLNEKHQQRMEQLRDVTQWQKSSSLKLLSSSNSRSQLEHHHHHH	soluble
MRKKDAYISQVKVRQDPVNQLAVEMRAKRFGLTIEEAKNPLAGSYVGRLCLQGVLTQDQYDATQKYLEVRNDYSCAKGLPSAVYDEKPSSSDDKAREKWVERATEQFCNTQKVLKEAQCLYRQHNLYAALQYLVMEDQELPHLVNALRIALNTLQKYFDPKSKWEMFYCYEKLLKNR	not soluble
MRKLFIALTFLLVPACLSAQLGGKIYLQRADSLLQRVLSLYEVKKYGLLMETYPRNPKQQITYTANTGSEVTQQEVSFLWPYSAMVSGCVSLYKTSGNKKYKKLMDKQIKPGLDLYWDTTRQPECYQSYPAFAGQNDRYYDDNDWVAIDFCDYYAVTKNKEYLKKAIALHDYIYSGWSDELGGGIYWCEQKKESKNTCSNAPATVLCMKLYKLTKDKKYLDQAMATYQWTRDNLRDPSDFVYWDNKNLQGKIGYAKYTYNSGQMIQAGVLLYQATGDEQYLKDAQQTAKGSYEHFLKPQPTVKGEMKFFPSSPWFNVILFRGLKALYEVDKNDTYVKAMIDNADYAWQYTRDENGLLNNDWSGNRKDKFKSLLENSCMIELYSEISELLEHHHHHH	not soluble
MRKLKITELNRISAEEFKQAEKLPLVVVLDDIRSLHNIGSVFRTSDAFRIECIYLCGITATPPHPEMHKTALGAEFTVDWKYVNNAVDAVDNLRKEGYIVYSIEQAEGSIMLDRLELDKTKKYAIVMGNEVKGVQQEVIDHSDGCIEIPQYGTKHSLNVSVTTGIVIWDLFKKLR	not soluble
MRLEDEIKQVKAFKNDYNKAVVNLIFTYNWLESSSKAFFKDFDLTSQQFNILRILKGQHPNPSTINLLRDRMLDKMCDASRLVERLRIKGLVERSQASSDKRAVDIFITKKGEELLAKIEVEFPAFEEKLHTLSAEEIVVFNNLLDKLRG	not soluble
MRLERVLEEARAKGYPIEDNGLGNLWVVLPRERFKEEMAHYKAMGFNFLADIVGLDYLTYPDPRPERFAVVYELVSLPGWKDGDGSRFFVRVYVPEEDPRLPTVTDLWGSANFLEREVYDLFGIVFEGHPDLRKILTPEDLEGHPLRKDYPLGETPTLFREGRYIIPAEFRAALTGKDPGLTFYKGGSRKGYRSLWADLKKAREVKGLEHHHHHH	not soluble
MRLILPVGLIATTLAIAPVRFDREKVFRVKPQDEKQADIIKDLAKTNELDFWYPGATHHVAAKMMVDFRVSEKESQAIQSALDQNKMHYEILIHDLQEEIEKQFDVKEDIPGRHSYAKYNNWEKIVAWTEKMMDKYPEMVSRIKIGSTVEDNPLYVLKIGEKNERRKAIFMDCGIHAREWVSPAFCQWFVYQATKTYGRNKIMTKLLDRMNFYILPVFNVDGYIWSWTKNRMWRKNRSKNQNSKCIGTDLNRNFNASWNSIPNTNDPCADNYRGSAPESEKETKAVTNFIRSHLNEIKVYITFHSYSQMLLFPYGYTSKLPPNHEDLAKVAKIGTDVLSTRYETRYIYGPIESTIYPISGSSLDWAYDLGIKHTFAFELRDKGKFGFLLPESRIKPTCRETMLAVKFIAKYILKHTS	soluble
MRLLVMVFTSDKKLVEEIKREVERRGFRVRDVQSPDELRRDLEKLLREHNAQFVIIVVTDKEWAKEALKKAKEEGVQIFLILWDTNEDELRKFREEVERKGVDVRTATSPDDVKDIVREFLERVGSHHHHHH	soluble
MRLPILIINFKAYGEAAGKRAVELAKAAERAARELGVNIVVAPNHLELGLVSQSVDIPVYAQGADVEAGGAHTAHVSLENIKEAGGSGVILNHSEAPLKLNDLARLVAKAKSLGLDVVVCAPDPRTSLAAAALGPHAVAVEPPELIGTGRAVSRYKPEAIVETVGLVSRHFPEVSVITGAGIESGDDVAAALRLGTRGVLLASAAVKAKDPYAKIVELAKPLSELR	soluble
MRLQTVKHFLEPVLEPLIRKVVKEEVELALGKHLAGIKWICEKETHPLESRNLQLKFLNNLSLPVFTSARIEGDEGQAIRVGLIDPSTGQIFSSGPASSAKLEVFVVEGDFNSVSDWTDEDIRNNIVREREGKKPLLNGNVFAVLNDGIGVMDEISFTDNSSWTRSRKFRLGVRIVDQFDYVKIREAITESFVVRDHRGELYKKHHPPSLFDEVWRLEKIGKDGAFHRRLNLSNINTVKDFLTHFHLNSSKLRQVLGTGMSSKMWEITLDHARSCVLDSSVHVYQAPGFQKKTAVVFNVVAQVLGLLVDFQYIPAEKLSEIEKALILSVYIFDLAQAEVMVIDALSHLNEVISYDDEVSMMRNVLNAPASQGSVAGIDYSGLSLTSLDGYGFVSSLHNTAECSGKHSDDVDMEVTPHGLYEDYDNLWNCSHILGLEEPQSELQSALDDFMSQKNASVGGKAHSKRWTKLFSVSRWLSVFKYVKLGKI	soluble
MRMAQVVLENVTKVYENKVVAVKNANLVVEDKEFVVLLGPSGCGKTTTLRMIAGLEEITDGKIYIDGKVVNDVEPKDRDIAMVFQNYALYPHMTVYENMAFGLKLRKYPKDEIDRRVREAAKILGIENLLDRKPRQLSGGQRQRVAVGRAIVRNPKVFLFDEPLSNLDAKLRVQMRSELKKLHHRLQATIIYVTHDQVEAMTMADKIVVMKDGEIQQIGTPHEIYNSPANVFVAGFIGSPPMNFVNARVVRGEGGLWIQASGFKVKVPKEFEDKLANYIDKEIIFGIRPEDIYDKLFALAPSPENTITGVVDVVEPLGSETILHVKVGDDLIVASVNPRTQAKEEQKIDLVLDMTRMHAFDKETEKAII	soluble
MRMDLSRIRNFSIIAHVDHGKSTLADRILELTHAVSDREMREQFLDSLELERERGITIKASAVRVTYRAKDGEEYVFHLIDTPGHVDFTYEVSRALAAVEGVLLVVDASQGVEAETLAKFYMALEHGHVIIPVINKIDLPNARPLEVALEVEEVLGLPADEAIFASGKTGEGVEEILEAIVQRIPPPKGDPEAPLKALIFDSVYDAYQGVIPYLRLFEGRVRPGDRIRIYSTGKEFTVDKVGVFTPQGLVATEALEAGEVGWLVAAIRDIHDVQVGDTITLADRPTPSPYPGFRPAKPVVFAGLYPVDSGDYGKLRDALEKLKLNDAALTFEPESSTALGFGFRCGFLGLLHAEIVQERLEREFGLSLIATAPSVVYKVRLKSGEEVEVHNPADLPDPTRIEEILEPYVKLTIFTPEEYVGSLMQLLQEKRGRLVNMNYLPGAQKRVELVYEAPFAEILYDFHDRLKSVSRGYASMDYEQAGYRPGDLVKVNVLVHGEVVDALTFIAHREKAYTMARAIVDKLAEVIPRQLFEVPIQAAIGGKIIARATVKALRKDVLAKCYGGDVTRKKKLLEKQKEGKKRLKAIGKVEVPQEAFLAVLSAGRDEPKG	soluble
MRMIVGHGIDIEELASIESAVTRHEGFAKRVLTALEMERFTSLKGRRQIEYLAGRWSAKEAFSKAMGTGISKLGFQDLEVLNNERGAPYFSQAPFSGKIWLSISHTDQFVTASVILEENHES	soluble
MRNFANYHVDVRRHTSGVVKTICEQCLPTRHNKRDRSLRVNIDTGHCHCYHCGADFYVPDDAEERAKAERQAARKRRAASAVPQHFHRPVFDASKTTLSEATERWLVETRCIPQSVIAGLRITEQEEFMSQSGTKERCVCFNYFEDGKLVNTKFRSGAKNFKMVQGAELIPYNIDSVLGQDTCIIHEGELDAASSLATGFKSVISVPAGANANLSWLDRFMESHFENLKDIIIAVDTDSAGLKLRDELVNRLGAERCRVAVYGPGCKDANEHLVKYGIDSLRIAIEQAEEIPLEGIFTAADLHEDLRALFDNGFGPGAETGWEEMDKICTYERRRLVIVTGIPGAGKSEWLDELVLRLCMRHQWKIAFFSPENNPIVYHLRKLIEKLTGRRFQNGCGMTEGLLLRSEEFLAENVCHIALKGSATPERVLAKARELVLRRGCRIFVFDPVNRFEHTPAPGQSETQYLSNFLNLFTEFATQYNCLVILVAHPRKMNRNPVTNHTPRPDMYDVNGSADFFNKADYGLVVERDKEVGVTRVYVEKVKFKHLGTGGVATFVYDPVSGRYLPCEESQDPSVPPEQRVRNTVNDSSCWLPEKELFE	not soluble
MRNKVLIVLAVIAGALILKSCGEPYSGAKETVGEFMEEIAEGEGRDAIKYLYPAYRDELAKNFKLPVQFTEMKPSEVLACVLSTMGRNIDEVEIKKAIAVNPNTANVVVKVEDKEGIEKFFSFTVVKEGDKWYIAKIEKYIPQVGR	not soluble
MRPESMTDGVPGSDSPAAAAAAASVTTSLHDLQVLVERGTLSGPEKQQADHLVTSLKRELVLRRVGDHLAERTFHELCVRLAVMERDWAAMERHIQQLMPLYELDRQAGIQSPHRDLLVGLNLMRLLAQNRLAEYHMELELLPTTEPQQNPYVLFPFQVEQALTEGSYQKILHIEAGAEWLPFIELLRETTIQEMVTSWAEAYAHVTLEELASMAALPVEQVPALLARVLDCTQYVVQNETVHFIASDHIREAPSQYLLAKEAVSRTMEYIRGLERIV	soluble
MRPLSLKGHERALTRVRFNREGDLTFSCAKDKKPCVWYTENGERIGSYDGHNGAVWDIDVSWDTTKCVTASGDLTVKIWDAELGNCLYTINHQTPMKSCGFSYSGNLVCFTTQKMTKNLSTFQVRDLRDSSQMVEGGESFFYSQFDVNATTALFTQMDDLVTIGFESGLLQQYDLRNPDTPIHTNESVHRYSVQDLQLSPRGDFLISASRDKTAALLDVNDLKKLKQYKSERPVNSACISPNRDHICLGGGEDAMQVTQTSVSAGHFEAKIYHMVFEEEFARFKGHFGPINTMAWHPSGTIIATGGEDGYIRIQEFDEDYLGFTYDF	not soluble
MRPMPTDDINSRIAELEADNRRLRQLLDKRDAPGELRHRLRSTVAMLRTIIRKSASKRHSLDTYVGHLEDRLDALMRAQAIADEQGAIDFHKLLADELLHYQARDGERVTFAGPDLHLQARAGQVLALAVHELAVNAVEHGALGGDGTIDIRWSVAGAGPAPLLTFVWKETDTAPVAEPSHHGFGTEVLTRTLEYELKAKTDLAFEPDGLRCTIRFPLSERVDGSQAG	not soluble
MRPTITALVLTYNGERLLDRCLGSLAFCDRILVVDSFSTDATVAIAQAAGAEVLQRKWEGPGPQFAFALEKISDGWIVSLDQDEICSEELRDSILAATAADSGEAGYWIPRRSWYFDRFLKHSGWYPDHLLRLFRAGRMRVEVSGAHYSFHPDGETGTLTGDILHYPYESFRQHLDKVNDYAQKGADDLRAKGKRGGLCAGLCHGAGRFIRIYIIKRGFLDGRAGFINAIHGAFYAFLKHLRIEEGDWGRPFEHKLEHHHHHH	soluble
MRPVFPLILSAVLFLSCFFGARQTEASASKRAIDANQIVNRMSLDEKLGQMLMPDFRNWQKEGESSPQALTKMNDEVASLVKKYQFGGIILFAENVKTTKQTVQLTDDYQKASPKIPLMLSIDQEGGIVTRLGEGTNFPGNMALGAARSRINAYQTGSIIGKELSALGINTDFSPVVDINNNPDNPVIGVRSFSSNRELTSRLGLYTMKGLQRQDIASALKHFPGHGDTDVDSHYGLPLVSHGQERLREVELYPFQKAIDAGADMVMTAHVQFPAFDDTTYKSKLDGSDILVPATLSKKVMTGLLRQEMGFNGVIVTDALNMKAIADHFGQEEAVVMAVKAGVDIALMPASVTSLKEEQKFARVIQALKEAVKNGDIPEQQINNSVERIISLKIKRGMYPARNSDSTKEKIAKAKKIVGSKQHLKAEKKLAEKAVTVLKNEQHTLPFKPKKGSRILIVAPYEEQTASIEQTIHDLIKRKKIKPVSLSKMNFASQVFKTEHEKQVKEADYIITGSYVVKNDPVVNDGVIDDTISDSSKWATVFPRAVMKAALQHNKPFVLMSLRNPYDAANFEEAKALIAVYGFKGYANGRYLQPNIPAGVMAIFGQAKPKGTLPVDIPSVTKPGNTLYPLGYGLNIKTGRPL	soluble
